The values that follow come from patent US20230140797A1 (published 2023).

Positions count from the first letter of the chain named.

Test [1] addresses T1, biotinylated GPC3 peptide (human, biotin on the C-terminal Lys).
T1 peptide: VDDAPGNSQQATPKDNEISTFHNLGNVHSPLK
In words: Biacore T200 SPR, peptide on Sensor chip SA.

A further test deals with human IgA (hIgA) (human). In words: Biacore T200 SPR. (SPR reads the build-up and loss of mass on a sensor chip optically.)
For test [2], the target named is human FcγRIIIa type V extracellular domain with C-terminal His tag (human, UniProt P08637 17-208). In words: SPR Biacore, amount bound per captured antibody.
Sequence of human FcγRIIIa type V extracellular domain with C-terminal His tag (P08637 17-208 F176V): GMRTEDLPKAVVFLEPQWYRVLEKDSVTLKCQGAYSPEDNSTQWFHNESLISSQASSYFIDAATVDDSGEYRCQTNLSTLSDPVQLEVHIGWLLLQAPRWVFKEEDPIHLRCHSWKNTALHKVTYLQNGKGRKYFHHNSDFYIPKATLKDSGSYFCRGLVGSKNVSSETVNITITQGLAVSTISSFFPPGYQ
Test [3] deals with T2, human FcγRIIb extracellular domain with C-terminal His tag (human, UniProt P31994 43-217).
T2 sequence (looked up): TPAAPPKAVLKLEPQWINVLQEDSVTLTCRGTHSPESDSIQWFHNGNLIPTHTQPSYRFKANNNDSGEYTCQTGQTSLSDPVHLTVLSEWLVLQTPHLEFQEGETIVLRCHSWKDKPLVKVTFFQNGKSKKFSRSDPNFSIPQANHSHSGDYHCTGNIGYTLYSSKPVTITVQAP
In words: SPR Biacore, amount bound per captured antibody.

Test [4] has as its target T3, human FcγRIIa type R extracellular domain with C-terminal His tag (human, UniProt P12318 34-217).
T3 sequence (looked up): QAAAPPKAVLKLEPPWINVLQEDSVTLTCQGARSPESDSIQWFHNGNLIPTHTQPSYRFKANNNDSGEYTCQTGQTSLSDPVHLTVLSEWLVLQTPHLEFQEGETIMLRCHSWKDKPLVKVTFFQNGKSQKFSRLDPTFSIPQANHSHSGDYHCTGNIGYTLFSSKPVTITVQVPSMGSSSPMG
In words: SPR Biacore, amount bound per captured antibody.

Test [5] has as its target T4, human FcγRIIa type H extracellular domain with C-terminal His tag (human, UniProt P12318 34-217).
T4 sequence (looked up): T3 sequence (looked up) with R134H
The test can be described thus: SPR Biacore, amount bound per captured antibody.

For test [6], the target named is human FcγRIa extracellular domain with C-terminal His tag (human, UniProt P12314 16-292). In words: SPR Biacore, amount bound per captured antibody.
Sequence of human FcγRIa extracellular domain with C-terminal His tag (P12314 16-292): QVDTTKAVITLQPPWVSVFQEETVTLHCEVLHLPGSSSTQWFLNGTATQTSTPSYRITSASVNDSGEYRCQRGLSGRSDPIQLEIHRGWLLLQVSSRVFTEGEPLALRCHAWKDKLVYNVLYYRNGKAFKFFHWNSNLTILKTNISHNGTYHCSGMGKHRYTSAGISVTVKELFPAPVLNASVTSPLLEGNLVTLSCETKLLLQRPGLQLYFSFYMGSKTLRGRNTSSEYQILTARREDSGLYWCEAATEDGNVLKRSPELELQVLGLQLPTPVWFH

B1: human IgE (hIgE) (antibody)
heavy: QVQLVQSGAEVKKPGASVKVSCKASGYTFTDYEMHWVRQAPGQGLEWMGALDPKTGDTAYSQKFKGRVTLTADKSTSTAYMELSSLTSEDTAVYYCTRFYSYTYWGQGTLVTVSSASTQSPSVFPLTRCCKNIPSNATSVTLGCLATGYFPEPVMVTWDTGSLNGTTMTLPATTLTLSGHYATISLLTVSGAWAKQMFTCRVAHTPSSTDWVDNKTFSVCSRDFTPPTVKILQSSCDGGGHFPPTIQLLCLVSGYTPGTINITWLEDGQVMDVDLSTASTTQEGELASTQSELTLSQKHWLSDRTYTCQVTYQGHTFEDSTKKCADSNPRGVSAYLSRPSPFDLFIRKSPTITCLVVDLAPSKGTVNLTWSRASGKPVNHSTRKEEKQRNGTLTVTSTLPVGTRDWIEGETYQCRVTHPHLPRALMRSTTKTSGPRAAPEVYAFATPEWPGSRDKRTLACLIQNFMPEDISVQWLHNEVQLPDARHSTTQPRKTKGSGFFVFSRLEVTRAEWEQKDEFICRAVHEAASPSQTVQRAVSVNPGK
light: DVVMTQSPLSLPVTPGEPASISCRSSQSLVHSNRNTYLHWYLQKPGQSPQLLIYKVSNRFSGVPDRFSGSGSGTDFTLKISRVEAEDVGVYYCSQNTHVPPTFGQGTKLEIKRTVAAPSVFIFPPSDEQLKSGTASVVCLLNNFYPREAKVQWKVDNALQSGNSQESVTEQDSKDSTYSLSSTLTLSKADYEKHKVYACEVTHQGLSSPVTKSFNRGEC
Take B1: in test [1], the binding result is reported as “binds”.

B2: GA2-IgG1 (antibody, V domains shown)
VH: QVQLVQSGAEVKKPGSSVKVSCKASGGTFSSYAISWVRQAPGQGLEWMGGIIPIFGTANYAQKFQGRVTITADESTSTAYMELSSLRSEDTAVYYCARPRWETAISSDAFDIWGQGTMVTVSS
VL: DIQMTQSPSSLSASVGDRVTITCRASQSISDDLNWYQQKPGKAPKLLIYEASNLQSGVPSRFSGSGSGTDFTLTISSLQPEDFATYYCQQHSSSPLTFGQGTKVEIKR
On to B2, for which the “Ca-dependent hIgA-binding activity (fold)” value in the test with human IgA (hIgA) is 100 times.

B3: IL6R-BP199/IL6R-L (antibody, human IgG1, kappa)
heavy: QVQLQESGPGLVKPSETLSLTCAVSGHSISHDHAWSWVRQPPGEGLEWIGFISYSGITNYNPSLQGRVTISRDNSKNTLYLQMNSLRAEDTAVYYCARSLARTTAMDYWGEGTLVTVSSASTKGPSVFPLAPSSKSTSGGTAALGCLVKDYFPEPVTVSWNSGALTSGVHTFPAVLQSSGLYSLSSVVTVPSSSLGTQTYICNVNHKPSNTKVDKKVEPKSCDKTHTCPPCPAPDLLGGDSVFLFPPKPKDTLMISRTPEVTCVVVDVSHEDPEVKFNWYVDGVEVHNAKTKPREEQYNSTYRVVSVLTVLHQDWLNGKEYKCKVSNAALPRPIEKTISKAKGQPREPQVYTLPPSRDELTKNQVSLTCLVKGFYPSDIAVEWESNGQPENNYKTTPPVLDSDGSFFLYSKLTVDKSRWQQGNVFSCSVMHEALHNHYTQESLSLSP
light: not shown
B3: the relative binding activity in test [2] is 103 % of IL6R-BF648/IL6R-L; in test [3], 144 % of IL6R-BF648/IL6R-L; in test [4] it was 172 % of IL6R-BF648/IL6R-L; in test [5], 116 % of IL6R-BF648/IL6R-L; in test [6], 112 % of IL6R-BF648/IL6R-L.
